How the values were obtained:
Assay in all cases: holdup assay
Set-up in all cases: key: below the threshold = too weak to quantify, mostly under pKd 3.1 to 4
Settings in all cases: plain residues with an end cap or a label only (N-terminal biotin on a linker: ado-ado)
PCLO, Q9Y6V0 = target: T1, PCLO, Q9Y6V0
T1 sequence (Q9Y6V0 4491-4600, limits assumed, looked up): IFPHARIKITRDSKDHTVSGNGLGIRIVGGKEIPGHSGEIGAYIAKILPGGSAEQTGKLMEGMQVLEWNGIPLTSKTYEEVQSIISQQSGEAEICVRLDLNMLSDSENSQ

GRIP2_6, Q9C0E4 = target: GRIP2_6, Q9C0E4
CASK, O14936 = target: CASK, O14936
TX1BP3, O14907 = target: T2, TX1BP3, O14907
T2 sequence (O14907 10-122, limits assumed, looked up): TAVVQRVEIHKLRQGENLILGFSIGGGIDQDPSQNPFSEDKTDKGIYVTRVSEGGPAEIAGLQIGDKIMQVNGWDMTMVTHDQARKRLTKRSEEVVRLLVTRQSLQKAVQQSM

FRMPD1, Q5SYB0 = target: T3, FRMPD1, Q5SYB0
T3 sequence (Q5SYB0 52-145, limits assumed, looked up): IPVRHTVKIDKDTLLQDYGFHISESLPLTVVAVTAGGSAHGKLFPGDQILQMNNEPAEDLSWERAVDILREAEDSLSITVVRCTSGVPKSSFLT

SNX27, Q96L92 = target: SNX27, Q96L92
PTPN13_1, Q12923 = target: T4, PTPN13_1, Q12923
T4 sequence (Q12923 1088-1188, limits assumed, looked up): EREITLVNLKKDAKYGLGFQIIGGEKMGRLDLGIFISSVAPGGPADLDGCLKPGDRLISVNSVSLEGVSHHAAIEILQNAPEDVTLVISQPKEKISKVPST

PDZD2_2, O15018 = target: T5, PDZD2_2, O15018
T5 sequence (O15018 329-429, limits assumed, looked up): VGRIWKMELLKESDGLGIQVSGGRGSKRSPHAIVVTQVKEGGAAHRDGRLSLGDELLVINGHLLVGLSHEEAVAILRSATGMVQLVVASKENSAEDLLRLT

PDZRN3_1, Q9UPQ7 = target: T6, PDZRN3_1, Q9UPQ7
T6 sequence (Q9UPQ7 244-349, limits assumed, looked up): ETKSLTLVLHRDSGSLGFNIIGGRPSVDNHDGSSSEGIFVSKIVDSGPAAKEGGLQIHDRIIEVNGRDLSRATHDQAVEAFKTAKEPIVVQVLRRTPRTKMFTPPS

GRIP1_2, Q9Y3R0 = target: T7, GRIP1_2, Q9Y3R0
T7 sequence (Q9Y3R0 145-248, limits assumed, looked up): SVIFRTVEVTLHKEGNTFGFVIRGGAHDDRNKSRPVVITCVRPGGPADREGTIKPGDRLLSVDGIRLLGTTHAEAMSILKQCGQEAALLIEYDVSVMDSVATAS

FRMPD4, Q14CM0 = target: FRMPD4, Q14CM0
MPP2, Q14168 = target: T8, MPP2, Q14168
T8 sequence (Q14168 180-250, limits assumed, looked up): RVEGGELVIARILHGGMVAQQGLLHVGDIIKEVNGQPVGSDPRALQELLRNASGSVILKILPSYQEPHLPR

SYNJ2BP, P57105 = target: T9, SYNJ2BP, P57105
T9 sequence (P57105 8-110, limits assumed, looked up): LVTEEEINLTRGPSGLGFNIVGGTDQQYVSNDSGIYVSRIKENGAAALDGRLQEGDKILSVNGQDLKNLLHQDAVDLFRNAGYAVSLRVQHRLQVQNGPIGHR

DLG5_1, Q8TDM6 = target: DLG5_1, Q8TDM6
DFNB31_2, Q9P202 = target: T10, DFNB31_2, Q9P202
T10 sequence (Q9P202 274-371, limits assumed, looked up): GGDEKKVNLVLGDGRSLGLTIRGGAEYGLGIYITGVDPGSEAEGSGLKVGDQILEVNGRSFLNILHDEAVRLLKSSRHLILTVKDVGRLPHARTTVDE

TIAM2, Q8IVF5 = target: T11, TIAM2, Q8IVF5
T11 sequence (Q8IVF5 885-986, limits assumed, looked up): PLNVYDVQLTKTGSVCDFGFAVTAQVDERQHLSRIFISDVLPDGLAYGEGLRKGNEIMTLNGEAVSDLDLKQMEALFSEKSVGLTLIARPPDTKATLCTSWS

SNTG1, Q9NSN8 = target: T12, SNTG1, Q9NSN8
T12 sequence (Q9NSN8 52-150, limits assumed, looked up): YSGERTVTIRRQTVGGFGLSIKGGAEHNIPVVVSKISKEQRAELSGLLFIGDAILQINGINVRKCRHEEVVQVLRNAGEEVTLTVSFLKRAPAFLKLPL

MAGI1_2, Q96QZ7 = target: MAGI1_2, Q96QZ7
Inadl_3, Q8NI35 = target: Inadl_3, Q8NI35
FRMPD2_3, Q68DX3 = target: FRMPD2_3, Q68DX3
GIPC2, Q8TF65 = target: GIPC2, Q8TF65
LRRC7, Q96NW7 = target: T13, LRRC7, Q96NW7
T13 sequence (Q96NW7 1440-1537, limits assumed, looked up): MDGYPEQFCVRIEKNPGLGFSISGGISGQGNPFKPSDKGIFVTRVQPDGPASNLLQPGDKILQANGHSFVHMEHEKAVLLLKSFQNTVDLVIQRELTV

DFNB31_1, Q9P202 = target: T14, DFNB31_1, Q9P202
T14 sequence (Q9P202 135-233, limits assumed, looked up): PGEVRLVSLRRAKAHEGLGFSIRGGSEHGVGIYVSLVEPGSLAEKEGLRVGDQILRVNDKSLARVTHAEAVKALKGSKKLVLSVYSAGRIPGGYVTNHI

Measured: pKd

Sequence of FRMPD2_3, Q68DX3 (Q68DX3 1073-1166): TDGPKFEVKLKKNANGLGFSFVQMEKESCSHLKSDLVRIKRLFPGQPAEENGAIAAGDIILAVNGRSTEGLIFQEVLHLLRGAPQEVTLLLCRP
Sequence of MAGI1_2, Q96QZ7 (Q96QZ7 456-580): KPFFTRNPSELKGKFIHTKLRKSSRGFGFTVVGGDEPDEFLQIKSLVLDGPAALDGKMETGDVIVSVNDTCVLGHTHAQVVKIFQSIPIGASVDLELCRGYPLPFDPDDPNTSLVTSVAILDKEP
Sequence of GIPC2, Q8TF65 (Q8TF65 112-203): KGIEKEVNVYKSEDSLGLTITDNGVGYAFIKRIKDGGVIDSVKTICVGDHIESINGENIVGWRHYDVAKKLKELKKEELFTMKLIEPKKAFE
Sequence of CASK, O14936 (O14936 487-570): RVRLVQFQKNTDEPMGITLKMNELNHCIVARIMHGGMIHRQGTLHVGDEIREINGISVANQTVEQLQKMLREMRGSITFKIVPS
Sequence of Inadl_3, Q8NI35 (Q8NI35 359-469): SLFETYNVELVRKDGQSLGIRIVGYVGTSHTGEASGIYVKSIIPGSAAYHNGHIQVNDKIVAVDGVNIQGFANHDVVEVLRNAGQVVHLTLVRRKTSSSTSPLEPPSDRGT
Sequence of GRIP2_6, Q9C0E4 (Q9C0E4 648-740): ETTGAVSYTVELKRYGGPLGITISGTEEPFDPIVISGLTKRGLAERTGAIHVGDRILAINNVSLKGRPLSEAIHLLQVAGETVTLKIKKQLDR
Sequence of FRMPD4, Q14CM0 (Q14CM0 67-160): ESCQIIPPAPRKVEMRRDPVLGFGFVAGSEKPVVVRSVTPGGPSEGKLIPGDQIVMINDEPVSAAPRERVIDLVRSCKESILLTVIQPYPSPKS
Sequence of DLG5_1, Q8TDM6 (Q8TDM6 617-713): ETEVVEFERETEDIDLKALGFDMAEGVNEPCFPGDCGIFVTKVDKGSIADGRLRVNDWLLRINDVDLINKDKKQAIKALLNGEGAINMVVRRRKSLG

B1: PLCB1, Q9NQ66 (peptide)
chain: IPGKEFDTPL
3.62: PDZD2_2, O15018
4.33: PDZRN3_1, Q9UPQ7 | SYNJ2BP, P57105
5.17: SNX27, Q96L92
4.95: FRMPD4, Q14CM0
4.03: DFNB31_1, Q9P202
3.87: TX1BP3, O14907
below the threshold: all other assays above

B2: ADGRA1, Q86SQ6 (peptide)
chain: TGPWKNETTV
4.07: PDZRN3_1, Q9UPQ7
4.47: TX1BP3, O14907
4.19: SNTG1, Q9NSN8
5.43: SNX27, Q96L92
4.02: PDZD2_2, O15018
3.73: DFNB31_1, Q9P202
4.67: MAGI1_2, Q96QZ7
5.13: SYNJ2BP, P57105
4.24: GIPC2, Q8TF65
below the threshold: all other assays above

B3: GOLT1A, Q6ZVE7 (peptide)
chain: RRLQGTSSMV
3.9: TX1BP3, O14907
4.04: MAGI1_2, Q96QZ7
4.72: SYNJ2BP, P57105
5.16: PDZD2_2, O15018
3.7: SNTG1, Q9NSN8
4.03: TIAM2, Q8IVF5
below the threshold: all other assays above

B4: IGF1R, P08069 (peptide)
chain: ALPLPQSSTC
3.67: SYNJ2BP, P57105
3.54: FRMPD4, Q14CM0 | FRMPD2_3, Q68DX3
4.46: PDZD2_2, O15018
below the threshold: all other assays above

B5: GNG4, P50150 (peptide)
chain: REKKFFCTIL
4.14: PDZRN3_1, Q9UPQ7
4.57: GRIP2_6, Q9C0E4
4.92: MAGI1_2, Q96QZ7
4.27: SYNJ2BP, P57105
4.67: Inadl_3, Q8NI35
4.23: FRMPD4, Q14CM0
5.29: TX1BP3, O14907
4.01: MPP2, Q14168
5.13: SNX27, Q96L92
3.98: TIAM2, Q8IVF5
3.97: LRRC7, Q96NW7
4.06: PDZD2_2, O15018
4.1: GRIP1_2, Q9Y3R0 | DFNB31_1, Q9P202
below the threshold: all other assays above

B6: TNRC6A, Q8NDV7 (peptide)
chain: DHLGGGGESM
below the threshold: all assays above
